Reference: patent US20260250352A1
Where two headings read alike, the source gives them in different places.

Assays:
[1] = biological target: recombinant human APRIL (human) (UniProt O75888); assay: cell-based or functional assay
[2] = biological target: recombinant human BAFF (human) (UniProt Q9Y275); assay: cell-based or functional assay
[3] = biological target: APRIL + BAFF in combination (human); assay: cell-based or functional assay
[4] = biological target: recombinant human APRIL (human) (UniProt O75888); assay: cell-based or functional assay; remark: listed apart in the source
[5] = biological target: recombinant human BAFF (human) (UniProt Q9Y275); assay: cell-based or functional assay; remark: listed apart in the source
[6] = biological target: recombinant human BAFF (human) (UniProt Q9Y275)
[7] = biological target: recombinant mouse APRIL (mouse) (UniProt Q9D777); assay: cell-based or functional assay
[8] = biological target: recombinant mouse BAFF (mouse) (UniProt Q9WU72); assay: cell-based or functional assay
[9] = biological target: recombinant human BAFF (human) (UniProt Q9Y275); remark: listed apart in the source
[10] = biological target: recombinant human APRIL (human) (UniProt O75888)
[11] = biological target: recombinant human BAFF (human) (UniProt Q9Y275); remark: listed apart in the source
[12] = biological target: recombinant mouse APRIL (mouse) (UniProt Q9D777)
[13] = biological target: recombinant mouse BAFF (mouse) (UniProt Q9WU72)
BAFF 60-mer (human) = BAFF 60-mer (human) (UniProt Q9Y275); assay: cell-based or functional assay
[14] = biological target: single chain APRIL-BAFF-BAFF heterotrimer (ABB) (human) (UniProt O75888); assay: cell-based or functional assay
[15] = biological target: single chain BAFF homotrimer (BAFF-BAFF-BAFF) (human) (UniProt Q9Y275); assay: cell-based or functional assay
[16] = biological target: single chain BAFF-APRIL-APRIL heterotrimer (BAA) (human) (UniProt Q9Y275); assay: cell-based or functional assay

13 TACI CRD2-Fc (Fc fusion), sequence (chain): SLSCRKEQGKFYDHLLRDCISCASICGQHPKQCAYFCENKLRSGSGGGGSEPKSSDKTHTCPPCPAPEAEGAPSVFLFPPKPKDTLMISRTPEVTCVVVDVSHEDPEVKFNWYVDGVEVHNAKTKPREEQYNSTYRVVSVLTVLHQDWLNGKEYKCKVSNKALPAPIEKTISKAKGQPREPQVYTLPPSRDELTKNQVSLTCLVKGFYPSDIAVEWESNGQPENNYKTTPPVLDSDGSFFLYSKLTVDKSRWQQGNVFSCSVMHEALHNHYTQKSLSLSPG
TACI WT 13 (G4S)4 (84) TACI WT 13 GSG4S (74) Fc 73 (Fc fusion), sequence (chain): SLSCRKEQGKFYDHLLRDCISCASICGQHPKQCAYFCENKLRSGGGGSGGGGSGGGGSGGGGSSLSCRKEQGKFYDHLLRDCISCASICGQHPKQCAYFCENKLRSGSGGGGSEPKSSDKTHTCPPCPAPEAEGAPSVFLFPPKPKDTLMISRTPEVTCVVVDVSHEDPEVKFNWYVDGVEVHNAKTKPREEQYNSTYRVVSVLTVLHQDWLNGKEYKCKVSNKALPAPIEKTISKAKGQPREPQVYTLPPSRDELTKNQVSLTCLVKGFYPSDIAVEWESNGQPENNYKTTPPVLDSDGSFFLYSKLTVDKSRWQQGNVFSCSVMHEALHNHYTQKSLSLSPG
TACI 13-118-Fc (Fc fusion), sequence (chain): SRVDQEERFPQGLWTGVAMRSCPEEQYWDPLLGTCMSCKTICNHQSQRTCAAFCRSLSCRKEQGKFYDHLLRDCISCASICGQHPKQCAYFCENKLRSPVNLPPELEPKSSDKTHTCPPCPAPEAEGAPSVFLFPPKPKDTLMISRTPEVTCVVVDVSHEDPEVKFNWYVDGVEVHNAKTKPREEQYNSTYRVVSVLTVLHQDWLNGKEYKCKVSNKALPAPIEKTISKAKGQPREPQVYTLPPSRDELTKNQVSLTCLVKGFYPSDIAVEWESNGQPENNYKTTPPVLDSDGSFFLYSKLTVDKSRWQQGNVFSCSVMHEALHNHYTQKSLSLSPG
TACI WT 13 GSG4S (74) Fc 73 (G4S)4 (84) TACI WT 13 (Fc fusion), sequence (chain): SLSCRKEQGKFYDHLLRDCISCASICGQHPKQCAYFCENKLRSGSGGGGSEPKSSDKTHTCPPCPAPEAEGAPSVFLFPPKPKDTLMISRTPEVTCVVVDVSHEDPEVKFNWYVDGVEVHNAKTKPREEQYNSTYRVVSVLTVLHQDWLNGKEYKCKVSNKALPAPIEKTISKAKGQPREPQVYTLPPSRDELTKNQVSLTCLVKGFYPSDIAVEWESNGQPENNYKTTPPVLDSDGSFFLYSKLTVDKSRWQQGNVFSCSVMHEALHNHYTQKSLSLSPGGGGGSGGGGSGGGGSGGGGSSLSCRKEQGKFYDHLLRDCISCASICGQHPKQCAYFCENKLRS
27 TACI CRD2-Fc (Fc fusion), sequence (chain): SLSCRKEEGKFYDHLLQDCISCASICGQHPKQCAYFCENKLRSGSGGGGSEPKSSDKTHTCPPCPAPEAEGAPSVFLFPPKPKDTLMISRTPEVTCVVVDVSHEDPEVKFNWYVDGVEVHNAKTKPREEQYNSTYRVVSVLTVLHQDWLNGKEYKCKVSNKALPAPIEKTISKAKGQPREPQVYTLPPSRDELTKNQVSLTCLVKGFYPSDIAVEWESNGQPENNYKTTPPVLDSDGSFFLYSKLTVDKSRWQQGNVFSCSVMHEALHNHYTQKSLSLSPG
29 TACI CRD2-Fc (Fc fusion), sequence (chain): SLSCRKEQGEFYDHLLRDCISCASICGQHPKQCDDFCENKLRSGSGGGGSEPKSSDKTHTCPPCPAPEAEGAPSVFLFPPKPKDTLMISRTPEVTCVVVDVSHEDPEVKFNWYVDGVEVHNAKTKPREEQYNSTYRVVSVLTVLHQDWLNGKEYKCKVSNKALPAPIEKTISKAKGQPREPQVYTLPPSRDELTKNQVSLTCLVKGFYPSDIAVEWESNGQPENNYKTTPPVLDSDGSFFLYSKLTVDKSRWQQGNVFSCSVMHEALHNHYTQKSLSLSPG
TACI 30-110-Fc (Fc fusion), sequence (chain): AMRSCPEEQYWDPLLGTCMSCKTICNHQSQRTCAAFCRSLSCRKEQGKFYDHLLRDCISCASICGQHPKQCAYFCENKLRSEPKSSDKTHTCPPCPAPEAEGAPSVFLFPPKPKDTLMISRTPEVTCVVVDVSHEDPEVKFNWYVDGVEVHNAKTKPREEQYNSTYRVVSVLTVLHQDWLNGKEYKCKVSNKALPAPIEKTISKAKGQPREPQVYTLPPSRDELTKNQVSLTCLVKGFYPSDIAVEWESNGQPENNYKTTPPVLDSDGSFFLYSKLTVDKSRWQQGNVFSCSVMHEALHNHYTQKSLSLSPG
recombinant mouse BAFF (mouse), sequence (Q9WU72 127-309 limits assumed): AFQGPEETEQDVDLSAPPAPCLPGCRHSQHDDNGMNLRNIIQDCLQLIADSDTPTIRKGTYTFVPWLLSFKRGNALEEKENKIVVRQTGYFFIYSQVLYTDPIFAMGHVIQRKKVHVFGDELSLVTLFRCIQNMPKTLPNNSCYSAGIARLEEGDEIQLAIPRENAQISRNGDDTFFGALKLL
recombinant mouse APRIL (mouse), sequence (Q9D777 96-241 limits assumed): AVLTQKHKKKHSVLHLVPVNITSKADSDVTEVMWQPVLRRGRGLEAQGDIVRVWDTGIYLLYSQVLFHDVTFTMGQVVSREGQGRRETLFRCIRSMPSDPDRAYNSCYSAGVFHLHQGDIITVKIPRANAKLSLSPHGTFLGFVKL
Atacicept (WT TACI-Fc with the atacicept sequence) (Fc fusion), sequence (chain): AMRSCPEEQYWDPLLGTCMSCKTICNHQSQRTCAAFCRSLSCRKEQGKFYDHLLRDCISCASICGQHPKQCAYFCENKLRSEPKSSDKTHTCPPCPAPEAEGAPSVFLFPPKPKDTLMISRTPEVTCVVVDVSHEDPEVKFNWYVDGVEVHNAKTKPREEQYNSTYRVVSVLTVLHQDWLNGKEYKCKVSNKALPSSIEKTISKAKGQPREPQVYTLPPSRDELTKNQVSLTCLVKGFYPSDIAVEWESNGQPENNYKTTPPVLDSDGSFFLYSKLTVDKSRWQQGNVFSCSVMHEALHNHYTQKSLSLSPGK
WT TACI 13-118-Fc based on the published telitacicept sequence (Fc fusion), sequence (chain): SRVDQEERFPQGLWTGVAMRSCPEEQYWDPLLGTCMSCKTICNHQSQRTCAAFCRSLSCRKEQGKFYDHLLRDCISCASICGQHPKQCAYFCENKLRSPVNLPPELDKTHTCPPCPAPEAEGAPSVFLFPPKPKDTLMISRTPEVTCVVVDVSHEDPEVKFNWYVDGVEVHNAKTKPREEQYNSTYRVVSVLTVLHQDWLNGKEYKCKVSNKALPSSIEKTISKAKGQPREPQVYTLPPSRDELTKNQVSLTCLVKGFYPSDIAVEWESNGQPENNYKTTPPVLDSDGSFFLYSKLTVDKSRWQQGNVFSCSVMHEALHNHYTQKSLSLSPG

| Substance | IC50, Jurkat/NF-kB/TACI reporter [1] | IC50 relative to WT TACI (68-110)-Fc (Δ WT) [1] | IC50, Jurkat/NF-kB/TACI reporter [2] | IC50 relative to WT TACI (68-110)-Fc (Δ WT) [2] | other results |
| --- | --- | --- | --- | --- | --- |
| 179 TACI CRD2-Fc (Q75E, F78Y) (Fc fusion) | 13.4 nM | 1.09 | 1.79 nM | 0.97 |  |
| WT TACI 13-118-Fc based on the published telitacicept sequence (Fc fusion) |  |  |  |  | IC50, TACI/Jurkat/NF-kB reporter [3]: > 200 nM |
| 190 TACI CRD2-Fc (Y102D) (Fc fusion) | 11.6 nM | 0.94 | 1.86 nM | 1 |  |
| 192 TACI CRD2-Fc (K77E, Y102D) (Fc fusion) | 0.891 nM | 0.07 | 2.18 nM | 1.17 |  |
| 32 TACI CRD2-Fc (K77E) (Fc fusion) | 0.159 nM | 0.01 | 1.54 nM | 0.83 |  |
| 25 TACI CRD2-Fc (K77E, A101D) (Fc fusion) | 2.04 nM | 0.17 | 1.96 nM | 1.06 |  |
| 178 TACI CRD2-Fc (Q75E, K77E) (Fc fusion) | 10.7 nM | 0.87 | 1.89 nM | 1.02 |  |
| 191 TACI CRD2-Fc (K77E, F78Y) (Fc fusion) | 10.1 nM | 0.82 | 1.97 nM | 1.06 |  |
| 29 TACI CRD2-Fc (Fc fusion) | 2.91 nM | 0.24 | 1.18 nM | 0.64 | IC50, Jurkat/NF-kB/TACI reporter [4]: 339 nM; IC50 relative to TACI 30-110-Fc [4]: 0.09; IC50 relative to TACI 30-110-Fc [5]: 0.23 |
| TACI 13-118-Fc (Fc fusion) |  |  | 7.91 nM | 4.26 | IC50 (read off the curve), human BAFF, NF-κB luciferase reporter, TACI/Jurkat/NF-κB cells [6]: 20 nM; IC50, Jurkat/NF-kB/TACI reporter [4]: 7810 nM; IC50 relative to TACI 30-110 [4]: 1.81; IC50 relative to TACI 30-110-Fc [4]: 2.37; IC50, Jurkat/NF-kB/TACI reporter [5]: 7700 nM; IC50 relative to TACI 30-110 [5]: 1.88; IC50 relative to TACI 30-110-Fc [5]: 1.33 |
| Atacicept (WT TACI-Fc with the atacicept sequence) (Fc fusion) |  |  | 7.74 nM | 4.17 | IC50, Jurkat/NF-kB/TACI reporter [3]: 7.72 nM; IC50, TACI/Jurkat/NF-kB reporter [3]: > 200 nM; IC50, Jurkat/NF-kB/TACI reporter [4]: 9.26 nM; IC50, TACI/Jurkat/NF-kB reporter [4]: > 200 nM; IC50, Jurkat/NF-kB/TACI reporter [5]: 8.29 nM; IC50, TACI/Jurkat/NF-kB reporter [5]: 20.8 nM; IC50, TACI/Jurkat/NF-kB reporter [7]: 18 nM; IC50, TACI/Jurkat/NF-kB reporter [8]: 9 nM |
| 185 TACI CRD2-Fc (F78Y, A101D) (Fc fusion) | 2.02 nM | 0.16 | 1.85 nM | 1 |  |
| 13 TACI CRD2-Fc (Fc fusion) | 12.3 nM | 1 | 1.85 nM | 1 | IC50 (read off the curve), human APRIL, NF-κB luciferase reporter, Jurkat/TACI/NF-κB cells [10]: 5 nM; IC50 (read off the curve), human BAFF, NF-κB luciferase reporter, Jurkat/TACI/NF-κB cells [9]: 2 nM; IC50 (read off the curve), human BAFF, NF-κB luciferase reporter, Jurkat/NF-κB/TACI cells [11]: 4 nM; IC50 (read off the curve), mouse APRIL, NF-κB luciferase reporter, Jurkat/NF-κB/TACI cells [12]: 0.7 nM; IC50 (read off the curve), mouse BAFF, NF-κB luciferase reporter, Jurkat/NF-κB/TACI cells [13]: 5 nM; IC50 (read off the curve), human BAFF, NF-κB luciferase reporter, TACI/Jurkat/NF-κB cells [6]: 3 nM; IC50, TACI/Jurkat/NF-kB reporter [3]: 12.9 nM; IC50, TACI/Jurkat/NF-kB reporter (BAFF 60-mer (human)): 18.7 nM; IC50, Jurkat/NF-kB/TACI reporter [4]: 369 nM; IC50, TACI/Jurkat/NF-kB reporter [4]: 8.5 nM; IC50 relative to TACI 30-110-Fc [4]: 0.1; IC50, Jurkat/NF-kB/TACI reporter [5]: 1330 nM; IC50, TACI/Jurkat/NF-kB reporter [5]: 3 nM; IC50 relative to TACI 30-110-Fc [5]: 0.23; IC50, TACI/Jurkat/NF-kB reporter [7]: 2.9 nM; IC50, TACI/Jurkat/NF-kB reporter [8]: 2.2 nM; IC50, TACI/Jurkat/NF-kB reporter [14]: 0.179 nM; IC50, TACI/Jurkat/NF-kB reporter [15]: 7.46 nM; IC50, TACI/Jurkat/NF-kB reporter [16]: < 0.016 nM |
| BAFF-R ECD (receptor) |  |  | 53.2 nM | 28.7 |  |
| TACI WT 13 (G4S)4 (84) TACI WT 13 GSG4S (74) Fc 73 (Fc fusion) |  |  |  |  | IC50, Jurkat/NF-kB/TACI reporter (BAFF 60-mer (human)): 4.33 nM; IC50, Jurkat/NF-kB/TACI reporter [4]: 34.6 nM; IC50, Jurkat/NF-kB/TACI reporter [5]: 3.29 nM |
| TACI WT 13 GSG4S (74) Fc 73 (G4S)4 (84) TACI WT 13 (Fc fusion) |  |  |  |  | IC50, Jurkat/NF-kB/TACI reporter (BAFF 60-mer (human)): 2.58 nM; IC50, Jurkat/NF-kB/TACI reporter [4]: 11.9 nM; IC50, Jurkat/NF-kB/TACI reporter [5]: 1.04 nM |
| TACI 30-110-Fc (Fc fusion) |  |  |  |  | IC50 (read off the curve), human BAFF, NF-κB luciferase reporter, TACI/Jurkat/NF-κB cells [6]: 20 nM; IC50, TACI/Jurkat/NF-kB reporter (BAFF 60-mer (human)): > 100 nM; IC50, Jurkat/NF-kB/TACI reporter [4]: 4320 nM; IC50 relative to TACI 30-110 [4]: 1; IC50 relative to TACI 30-110-Fc [4]: 1; IC50, Jurkat/NF-kB/TACI reporter [5]: 4490 nM; IC50 relative to TACI 30-110 [5]: 1; IC50 relative to TACI 30-110-Fc [5]: 1 |
| 182 TACI CRD2-Fc (K77E, F78Y, R84Q) (Fc fusion) | 10.1 nM | 0.82 | 2.21 nM | 1.19 |  |
| 186 TACI CRD2-Fc (F78Y, Y102D) (Fc fusion) | 8.49 nM | 0.69 | 1.96 nM | 1.06 |  |
| 24 TACI CRD2-Fc (K77E, R84Q) (Fc fusion) | 4.26 nM | 0.35 | 2.26 nM | 1.22 |  |
| 181 TACI CRD2-Fc (Q75E, Y102D) (Fc fusion) | 11.1 nM | 0.9 | 2.15 nM | 1.16 |  |
| TACI 13-118, with K77E/F78Y/Y102D, Fc fusion | 13.2 nM | 1.07 | 1.99 nM | 1.07 | IC50, Jurkat/NF-kB/TACI reporter [4]: 848 nM; IC50 relative to TACI 30-110 [4]: 0.2; IC50, Jurkat/NF-kB/TACI reporter [5]: 2050 nM; IC50 relative to TACI 30-110 [5]: 0.46 |

Now from value to substance, other results behind:

| IC50, Jurkat/NF-kB/TACI reporter [1] | IC50 relative to WT TACI (68-110)-Fc (Δ WT) [1] | IC50, Jurkat/NF-kB/TACI reporter [2] | IC50 relative to WT TACI (68-110)-Fc (Δ WT) [2] | Substance | other results |
| --- | --- | --- | --- | --- | --- |
| 20 nM | 1.62 | 2.36 nM | 1.27 | 180 TACI CRD2-Fc (Q75E, A101D) (Fc fusion) |  |
| 0.566 nM | 0.05 | 5.49 nM | 2.96 | 30 TACI CRD2-Fc (R84Q) (Fc fusion) | IC50 (read off the curve), human BAFF, NF-κB luciferase reporter, Jurkat/TACI/NF-κB cells [9]: 1 nM |
| 8.38 nM | 0.68 | 1.83 nM | 0.99 | 23 TACI CRD2-Fc (A101D) (Fc fusion) |  |
| 1.94 nM | 0.16 | 1.46 nM | 0.79 | 177 TACI CRD2-Fc (Q75E) (Fc fusion) |  |
| 2.62 nM | 0.21 | 2.26 nM | 1.22 | 184 TACI CRD2-Fc (F78Y, R84Q) (Fc fusion) |  |
| 12.3 nM | 1 | 1.86 nM | 1.01 | 188 TACI CRD2-Fc (R84Q, Y102D) (Fc fusion) |  |
| 33.6 nM | 2.72 | 1.95 nM | 1.05 | 189 TACI CRD2-Fc (A101D, Y102D) (Fc fusion) |  |
| 0.176 nM | 0.01 | 1.64 nM | 0.88 | 183 TACI CRD2-Fc (F78Y) (Fc fusion) |  |
| 11.8 nM | 0.96 | 1.46 nM | 0.79 | 27 TACI CRD2-Fc (Fc fusion) | IC50, Jurkat/NF-kB/TACI reporter [4]: 262 nM; IC50 relative to TACI 30-110-Fc [4]: 0.07; IC50, Jurkat/NF-kB/TACI reporter [5]: 1390 nM; IC50 relative to TACI 30-110-Fc [5]: 0.24 |
| 11.2 nM | 0.91 | 2.35 nM | 1.27 | 187 TACI CRD2-Fc (R84Q, A101D) (Fc fusion) |  |
